Measurements reported in article PMC3085397 (Immunity, 2011).

Biological target: the molecule itself
Test: SEC-MALS

Row | Protein | binding result | stoichiometry N
1 | FOXP3 forkhead domain F373A (IPEX mutation) (domain or fragment, human) MRPPFTYATLIRWAILEAPEKQRTLNEIYHWFTRMFAAFRNHPATWKNAIRHNLSLHKCFVRVESEKGAVWTVDELEFRKKR | binds | –
2 | FOXP3 forkhead domain double mutant (W348Q and M370T) (domain or fragment, human) MRPPFTYATLIRQAILEAPEKQRTLNEIYHWFTRTFAFFRNHPATWKNAIRHNLSLHKCFVRVESEKGAVWTVDELEFRKKR | binds | –
3 | FOXP3 forkhead domain F371C (IPEX mutation) (domain or fragment, human) MRPPFTYATLIRWAILEAPEKQRTLNEIYHWFTRMCAFFRNHPATWKNAIRHNLSLHKCFVRVESEKGAVWTVDELEFRKKR | – | 2
